# B1: 9/10 peptide, aa 209-241 of apoA-I (33-mer) (peptide)
# peptide: Ac-PALEDLRQGLLPVLESFKVSFLSALEEYTKKLN-NH2
# Columns and labels:
# [1] = molecular target: ATP-binding cassette transporter A1 (ABCA1), endogenous in J774 macrophages (Homo sapiens (Human)) (UniProt O95477)
# [2] = molecular target: ATP-binding cassette transporter A1 (ABCA1), endogenous in J774 macrophages (Homo sapiens (Human), UniProt O95477); assay: cell-based or functional assay
Molecule,concentration giving maximal cholesterol efflux [1] [µg/mL],potency in mediating ABCA1-dependent cholesterol efflux against the 1/9 chimera [2]
full-length recombinant apoA-I (His-tagged) (from UniProt P02647) (ligand),10,
B1,,2 fold (against the 1/9 chimera)
